Laboratory results as given in patent US20210063414A1, “METHODS FOR PREVENTING AND/OR TREATING BONE LOSS CONDITIONS BY MODULATING IRISIN” (Dana-Farber Cancer Institute, Inc., priority 2018, published 2021).

Assays:
Assay in all cases: Crosslinking/co-immunoprecipitation/mass spectrometry (TMT quantitative proteomics) to identify irisin receptors
Type in all cases: binding
[1] = target: T1, MLO-Y4 cell surface proteins (Mus musculus, UniProt Q66GT5); details: co-precipitated protein Ptpmt1 (PTPM1_MOUSE)
T1 construct: endogenous in cells; host or cells: MLO-Y4
T1 sequence (Q66GT5 32-193): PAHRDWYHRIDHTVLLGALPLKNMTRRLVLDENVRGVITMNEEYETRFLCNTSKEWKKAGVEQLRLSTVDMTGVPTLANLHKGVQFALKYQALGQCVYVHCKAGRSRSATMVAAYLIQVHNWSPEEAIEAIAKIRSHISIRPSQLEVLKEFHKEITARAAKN
How it was run: (§1)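 Mouse MLO-Y4 cells were switched to serum-free FreeStyle medium for 4 h, chilled, then exposed to 10 nM His-tagged irisin (or adipsin as control) for 20 min. Cells were crosslinked with 1.5 mM DTSSP (30 min, ice), and bound proteins were pulled down on Ni-NTA and eluted with 250 mM imidazole. Eluates were separated by SDS-PAGE, trypsin-digested in gel, TMT 6-plex labelled and quantified by MS3-based LC-MS/MS on an Orbitrap Fusion Lumos.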

[2] = target: T2, MLO-Y4 cell surface proteins (Mus musculus, UniProt P55292); details: co-precipitated protein Dsc2 (DSC2_MOUSE)
T2 construct: endogenous in cells; host or cells: MLO-Y4
T2 sequence (P55292 136-902): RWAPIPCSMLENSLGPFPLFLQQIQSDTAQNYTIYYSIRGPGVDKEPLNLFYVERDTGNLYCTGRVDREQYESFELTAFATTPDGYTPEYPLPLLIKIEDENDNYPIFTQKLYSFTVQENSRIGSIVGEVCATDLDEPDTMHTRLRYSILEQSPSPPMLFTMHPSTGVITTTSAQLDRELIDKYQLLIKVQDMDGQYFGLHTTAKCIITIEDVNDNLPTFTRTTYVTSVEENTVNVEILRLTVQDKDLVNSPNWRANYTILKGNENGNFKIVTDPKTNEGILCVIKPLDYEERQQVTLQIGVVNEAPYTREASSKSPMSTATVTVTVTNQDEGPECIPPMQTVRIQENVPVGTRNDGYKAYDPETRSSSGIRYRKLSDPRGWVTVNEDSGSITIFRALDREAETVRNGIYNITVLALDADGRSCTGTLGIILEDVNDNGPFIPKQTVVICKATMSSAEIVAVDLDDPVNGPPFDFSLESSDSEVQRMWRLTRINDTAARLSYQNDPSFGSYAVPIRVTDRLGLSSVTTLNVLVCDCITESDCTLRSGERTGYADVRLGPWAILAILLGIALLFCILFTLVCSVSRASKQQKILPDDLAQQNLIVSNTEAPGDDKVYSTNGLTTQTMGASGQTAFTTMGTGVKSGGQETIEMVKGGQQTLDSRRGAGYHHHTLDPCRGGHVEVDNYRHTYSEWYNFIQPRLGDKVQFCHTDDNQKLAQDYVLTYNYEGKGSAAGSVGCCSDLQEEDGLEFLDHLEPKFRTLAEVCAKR
How it was run: as §1

[3] = target: T3, MLO-Y4 cell surface proteins (Mus musculus, UniProt Q9WTP6); details: co-precipitated protein Ak2 (KAD2_MOUSE)
T3 construct: endogenous in cells; host or cells: MLO-Y4
How it was run: as §1

[4] = target: T4, MLO-Y4 cell surface proteins (Mus musculus, UniProt P56567); details: co-precipitated protein Csta (CYTA_MOUSE)
T4 construct: endogenous in cells; host or cells: MLO-Y4
T4 sequence (P56567 1-97): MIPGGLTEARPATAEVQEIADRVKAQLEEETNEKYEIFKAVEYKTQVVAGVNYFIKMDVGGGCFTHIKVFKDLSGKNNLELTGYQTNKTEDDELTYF
How it was run: as §1

TMT signal-to-noise ratio [1]: 92.3664 | TMT signal-to-noise ratio [2]: 93.7977 | TMT signal-to-noise ratio [3]: 113.461 | TMT signal-to-noise ratio [4]: 160.416
Substance: adipsin
